Measured values: the supplement of paper PMC10567573
± gives the standard deviation.

Test: protein stability index of a GFP-peptide fusion (GPS, HEK-293T) (PSI 1-6); higher = more stable
Conditions: c terminus: a fixed tail appended
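Note: 24-mer peptide tiles fused after GFP, lentivirally expressed, FACS-sorted into six equal bins by GFP/DsRed ratio, decoded by Illumina sequencing, PSI is the read-weighted mean bin number.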

Sequence	protein stability index (treatment: DMSO)	protein stability index (treatment: MLN4924 1 uM, 8 h)
LLMIPWGSAAKLVCYFTNWAQYRQ [CHIT1]	3.04 ± 0.69	2.86 ± 0.68
LLSCLSKSNNRLKSLSIQYLELDR [FBXO39]	2.54 ± 0.37	2.01 ± 0.33
LLVINESIESIKWMIEEKATITSR [LURAP1L]	2.38 ± 0.24	2.51 ± 0.3
LNERKQASAIKKEELVARSETHAA [CHGB]	5.48 ± 0.22	5 ± 0.23
LNFCGPNVINHFYCDLPQLFQLSC [OR3A1]	2.83 ± 0.51	2.6 ± 0.71
LNLTEGFAVLHWKPPQNPVDTYDV [TNXB]	2.5 ± 0.66	2.69 ± 0.45
LNQKTSEKMKKRKMSNSFHGIRPP [RHOBTB3]	3.95 ± 0.34	4.23 ± 0.11
LNSMPKRLCLVCGDIASGYHYGVA [ESRRG]	2.48 ± 0.22	2.23 ± 0.39
LNVTNYCHLAHELRLSCMERKKVQ [DCAF4]	2.61 ± 0.19	2.36 ± 0.21
LPAVKVFLDWLRTNPDLIIVCAQS [SMG5]	2.27 ± 0.47	2.41 ± 0.45
LPFERLAFVLSSNSLKHCTELELF [KLHL13]	2.73 ± 0.6	2.76 ± 0.62
LPFLAHALYVQAPTVTIEGFLQAL [TRIP13]	2.93 ± 0.66	2.76 ± 0.51
LPSLGLPQYRSYFMECLVDARMLD [PPFIA4]	2.47 ± 0.46	2.13 ± 0.38
LPWFRTLSWYFLLCVNYFFYGETV [CDS1]	3.08 ± 0.14	3.38 ± 0.75
LPWLSLRALKFRERDALEAVFRFW [DNAAF3]	2.46 ± 0.24	2.49 ± 0.28
LQKKVEQLSRELSTLRNLFKQLPE [CEBPB]	2.3 ± 0.32	2.43 ± 0.41
LQNNCTSSITRQKKRLQELALALK [TMEM120A]	2.79 ± 0.15	2.83 ± 0.4
LQQIADFMTTNVPNVYPAAPQGGM [ADD1]	3.3 ± 0.2	3.29 ± 0.17
LQYSTQVHTEFTLRNFNSAKDMKK [MATN2]	3.73 ± 0.3	4.08 ± 0.32
LRGLCANTVLRFLDLKGNNLRAAG [LRRC45]	2.3 ± 0.24	2.24 ± 0.16
LRKGFSCVKNELLPSHPLELSEKN [POMP]	3.61 ± 0.094	3.75 ± 0.24
LRKREKAEEKERRRKEYDALKAAK [LRRC59]	4.66 ± 0.4	4.79 ± 0.31
LRQKGNRNTHKDLLRFAQVFSQMI [FEM1B]	2.38 ± 0.56	2.26 ± 0.32

Sequence	protein stability index (treatment: DMSO)	protein stability index (treatment: MLN4924 1 uM, 8 h)
LRREKPSEEMVKMVLSRPCHPDDQ [INTS3]	4.61 ± 0.12	4.69 ± 0.15
LRRKSPASGQGPMCNVKAPLGSPS [ADAMTS4]	3.85 ± 0.2	3.86 ± 0.46
LRSKLCSLYENDCIFDKFECVWNG [PPP2R2B]	2.5 ± 0.34	2.42 ± 0.39
LRTYLARLPWAGQLTKELPLSPAF [PBXIP1]	2.22 ± 0.64	2.16 ± 0.22
LSAFYLSYFDMLYPEDSSWAAKAP [SPDEF]	2.63 ± 0.59	2.48 ± 0.52
LSICFTCFKAAFLDFKDLLESEDW [TEX19]	2.62 ± 0.5	2.69 ± 0.39
LSKSNKPIHTIILNPHVHLVGDDA [CAMK2D]	3.12 ± 0.3	2.95 ± 0.48
LSMNWAIVADILLYVVIPTRRSTA [SPNS1]	2.63 ± 0.62	3.01 ± 0.77
LSPKKTWEGFIGGFFSTVVFGFIA [CDS1]	2.28 ± 0.47	2.15 ± 0.63
LSPSRGVAQCLRDLVAMQWADAAG [ZSWIM9]	2.7 ± 0.17	2.77 ± 0.28
LTGFSWRGGSDPETTGIQIWSEVF [ATL3]	2.16 ± 0.33	1.59 ± 0.4
LVACCLADIFRIYAPEAPYTSPDK [PDS5B]	3.3 ± 1.4	
LVSGSQSALGPPPAASNSSDLFDL [CLINT1]	4.43 ± 0.24	4.34 ± 0.18
LWEKLAKQGELPREVRRAQARLLN [NOP53]	2.78 ± 0.12	2.82 ± 0.67
LWTTSRVLKVLSVCSSNKPAIVEA [CTNNB1]	2.21 ± 0.3	2.08 ± 0.28
LYFQWYIFYFVIQRKKWVDLAWMI [FADS1]	2.25 ± 0.7	3.09 ± 0.93
MAALNSQTAVQFQQYAAQQYPGNY [ACBD3]	3.09 ± 0.38	3.16 ± 0.1
MADSGLREPQEDSQKDLENDPSVN [TOR1AIP2]	5.65 ± 0.19	5.57 ± 0.21
MALLRKINQVLLFLLIVTLCVILY [GLT8D2]	2.12 ± 0.27	2.11 ± 0.18
MAMTAGTTTTFPMSNHTRERVTVA [STK38L]	3.2 ± 0.36	3.28 ± 0.36
MASGPGSQEREGLLIVKLEEDCAW [ZNF263]	2.44 ± 0.36	2.28 ± 0.47
MASLLEDLSHIEGLSQAPQPLADE [SERTAD1]	4.82 ± 0.092	4.72 ± 0.1
